Data on 23 sequences can be found in the DeepSol protein solubility set.

The data set is described as follows: soluble on expression in E. coli; label from the status in PepcDB or PDB records.
On to “SLVELQEIFDVSYGSKLDLNKMSSFNPTINFVGRSGKNNGVTASVDLLKNTKPYPAGLLTVALGGSVLSTFLQNKPFYTAQNVAVLNPKTEMTEQQKLFYCAAIFANAYRFSACGREANRTLRQLFVPSLDEIPSWVESVNLNPSAGVTEPKLKESLDLPVVRQSKRLDEIFTIQNGIAATKLKEFEQRQKDTVVYIRPASTQARTLRSYIARDSVDEKHIFPCHTLFTSTNGEGSHTYSYVSTCEFVANSDVAVLTPIQSDMPIEVKLYYAKCITANRYLFSYGRKPKGEKLKSIMLPYFDQQEDFDYICRFIHTLLFSNNL”, for which the “soluble on expression in E. coli” value is “not soluble”.

For “SLYENDYVKKTQVWPSGGQMTVKNLSANYIDGGNTVLENISFSLSPGQRVGLLGRTGSGKSTLLSAFLRLLSTQGDIQIDGVSWQTIPLEKWRKAFGVIPQKVFIFSGSIRKNLDPYGKWSDEELLKVTEEVGLKLIIDQFPGQLDFVLLDGGCVLSHGHKQLVCLARSVLSKAKILLLDEPSAHLDPITFQIIRKTLKHAFADCTVILSEARLEAMLECDRFLVIEDNTVRQYDSIQKLVNEKSDFKQAISHSD”, the “soluble on expression in E. coli” value is on record as “soluble”. For “SLYQVVLGKVSTLSAGQLPDALIAQAPQGVRRASWLAGRVLLSRALSPLPEMVYGEQGKPAFSAGAPLWFNLSHSGDTIALLLSDEGEVGCDIEVIRPRDNWRSLANAVFSLGEHAEMEAERPEQQLAAFWRIWTRKEAIVKQRGGSAWQIVSVDSTLPSALSVSQCQLDTLSLAVCTPTPFTLTPQTITKAL”, the “soluble on expression in E. coli” value is listed as “not soluble”. In the case of “SMAPWGKRLAGVRGVLLDISGVLYDSGAGGGTAIAGSVEAVARLKRSRLKVRFCTNESAASRAELVGQLQRLGFDISEQEVTAPAPAACQILKERGLRPYLLIHDGVRSEFDQIDTSNPNCVVIADAGESFSYQNMNNAFQVLMELEKPVLISLGKGRYYAATSGLMLDVGPYMKALEYACGIKAEVVGKPSPEFFKSALQAIGVEAHQAVMIGDDIVGDVGGAQRCGMRALQVRTGKFRPSDEHHPEVKADGYVDNLAEAVDLLLQHADK”, the “soluble on expression in E. coli” value is given as “soluble”. In the case of “SMKINFLRNKHKIHVQGTDLPDPIATFQQLDQEYKINSRLLQNILDAGFQMPTPIQMQAIPVMLHGRELLASAPTGSGKTLAFSIPILMQLKQPANKGFRALIISPTRELASQIHRELIKISEGTGFRIHMIHKAAVAAKKFGPKSSKKFDILVTTPNRLIYLLKQDPPGIDLASVEWLVVDESDKLFEDGKTGFRDQLASIFLACTSHKVRRAMFSATFAYDVEQWCKLNLDNVISVSIGARNS”, the “soluble on expression in E. coli” value is on record as “soluble”. Take “SMLSTEGREGFVVKVRGLPWSCSAEEVMRFFSDCKIQNGTSGVRFIYTREGRPSGEAFVELESEDEVKLALKKDRETMGHRYVEVFKSNSVEMDWVLKHTGPNSPDTANDGFVRLRGLPFGCSKEEIVQFFSGLEIVPNGMTLPVDFQGRSTGEAFVQFASQEIAEKALKKHKERIGHRYIEIFKSSRAEVRTHYDPPRKLMTMQRPGPYDRPGAGRGYNSIGRGAGFERMRRGAYGGGYGGYDDYGGYNDGYGFGSDRFGRDLNYCFSGMSDHRYGDGGSSFQSTTGHCVHMRGLPYRATENDIYNFFSPLNPMRVHIEIGPDGRVTGEADVEFATHEDAVAAMAKDKANMQHRYVELFLNSTAGTSGGAYDHSYVELFLNSTAGASGGAYGSQMMGGMGLSNQSSYGGPASQQLSGGYGGGYGGQSSMSGYDQVLQENSSDYQSNLA”: the “soluble on expression in E. coli” value is “not soluble”.

In the case of “SMQQLVLDPGFLGLEPLLDLLLGVHQELGASELAQDKYVADFLQWAEPIVVRLKEVRLQRDDFEILKVIGRGAFSEVAVVKMKQTGQVYAMKIMNKWDMLKRGEVSCFREERDVLVNGDRRWITQLHFAFQDENYLYLVMEYYVGGDLLTLLSKFGERIPAEMARFYLAEIVMAIDSVHRLGYVHRDIKPDNILLDRCGHIRLADFGSCLKLRADGTVRSLVAVGTPDYLSPEILQAVGGGPGTGSYGPECDWWALGVFAYEMFYGQTPFYADSTAETYGKIVHYKEHLSLPLVDEGVPEEARDFIQRLLCPPETRLGRGGAGDFRTHPFFFGLDWDGLRDSVPPFTPDFEGATDTCNFDLVEDGLTAMVSGGGETLSDIREGAPLGVHLPFVGYSYSCMALRDSEVPGPTP”, the “soluble on expression in E. coli” value was “soluble”. For the sequence “SMYKVRDISLAEWGRRELELAENEMPGLMELRREYGPSKPLKGAKIAGCLHMTMQTAVLIETLVELGAEVRWASCNIFSTQDHAAAAIAKRGIPVFAWKGETEEEYMWCMKQTLKGFSGDGYPNMLLDDGGDLTNYVLDECKELDGKIYGVSEETTTGVKNLYKRLQRGKLTIPAMNVNDSVTKSKFDNLYGCRESLVDGIKRATDVMIAGKTACVCGYGDVGKGCAAALRGFGARVVVTEVDPINALQAAMEGYQVLLVEDVVEEAHIFVTTTGNDDIITSEHFPRMRDDAIVCNIGHFDTEIQVAWLKANAKERVEVKPQVDRYTMANGRHIILLAEGRLVNLGCASGHPSFVMSNSFCNQVLAQIELWTNRDTGKYPRGAKAQVYFLPKKLDEKVAALHLGKLGAKLTKLTPKQAEYINCPVDGPFKPDHYRY”, the “soluble on expression in E. coli” value was “soluble”. Take “SNAKSAVTAQSILEKADEIRFPQDSFQVNVAIRTAAPDHAEDLYRYQVLSKGNENSIVMITEPASERGQAILMKGRDLWVFMPSVSQPIRLSLSQRLTGQVANGDIARANFTGDYHPQLLRNESIDDEDYYVLELTGIDRSVTYQKVLLWVNQSNFRPYKAEFYSVSGRLLKTSRYENFDNILGEMRPTRIIMEDALKSGEVSVLDYSDMKLRDLPDKIFTKDYLKRLE”: the “soluble on expression in E. coli” value is listed as “soluble”.

As for “SNAKVILYARVSSNTQKDDLANQVKYLEEQVKEYDLVITDIGSGLNMKRKGFLKLLRMILNNEVSRVITAYPDRLVRFGFEILEEVCKAHNCEIVVLNQEDKTPEEELVEDLATILVSFSGKLHGMRSQKYEKVKKCAEELKN”, the “soluble on expression in E. coli” value is recorded as “soluble”. As to “SNAMKFELPKLPYAVDALESTISKETIEYHYGKHHQTYVTNLNNLVEGTEHDGRNLEEIVKTSNGGIFNNAAQVFNHTFYWNCLTPNKTEASSQLKAALIETFGSVENFKEQFSKAAIATFGSGWAWLVKNTEGKLEIVTTSNAGCPLTENKKPLLTFDVWEHAYYIDYRNARPKYVEALWDIVNWQFVSEQFAD”, the “soluble on expression in E. coli” value is listed as “soluble”. Take “SNAMNQTLLSDFGTPVERVERAIDALRNGRGVMVLDDESRENEGDMVFAAEAMTLEQMALTIRHGSGIVCLCITDERRQQLDLPMMVTHNSSQFQTAFTVTIEAAEGVTTGVSAADRLTTIRKAIADNAKPADLNRPGHVFPLRGQPGGVLSRRGHTEASIDLATLAGYKPAGVLCELTNDDGSMAHAPEVIAFAKLHDMPVVTIDDLAAYLQSRAKKAS”: the “soluble on expression in E. coli” value is “soluble”. The entry for “SNAMQNRWAETKFDSDIDEVVYGSRLIGSDPDLVLHGGGNTSVKTTERDHAGRIISVLRVKNSGSNLGTIDSRGFTGIRMDDALAAAKIDKMTDEAMVDYLKKSMVNPSEPSPSVETFLHAFLPYKFVMHSHADAILSITNTDLPSDQIAKILGNVVVLPYIPPGFTLAKEVMNCFKKGIDGIVLRKHGLLTFGDTGKEAYDRHINIVSRAENFIREKTDGK” is “soluble”; for “SNAMSRAKKWVQYFLSHRHVTMELIHKIDEAHYDYKPTPTSMTAKQLATHMLFSFYNFANTAKHGDPSLFRQKIEEPETNLAKLAETYTEKTRQLIESMSDDDFDRTLDLTAIFGTQMSTAQFLQLAMDHEIHHKGQLFVYVRGMGHTDLPLFVKRG” it is “soluble”; for “SNAMSVQTIERLQDYLLPEWVSIFDIADFSGRMLRIRGDIRPALLRLASRLAELLNESPGPRPWYPHVASHMRRRVNPPPETWLALGPEKRGYKSYAHSGVFIGGRGLSVRFILKDEAIEERKNLGRWMSRSGPAFEQWKKKVGDLRDFGPVHDDPMADPPKVEWDPRVFGERLGSLKSASLDIGFRVTFDTSLAGIVKTIRTFDLLYAEAEKGS” it is “soluble”. Turning to “SNAMTMKVGFIGLGIMGKPMSKNLLKAGYSLVVSDRNPEAIADVIAAGAETASTAKAIAEQCDVIITMLPNSPHVKEVALGENGIIEGAKPGTVLIDMSSIAPLASREISDALKAKGVEMLDAPVSGGEPKAIDGTLSVMVGGDKAIFDKYYDLMKAMAGSVVHTGDIGAGNVTKLANQVIVALNIAAMSEALTLATKAGVNPDLVYQAIRGGLAGSTVLDAKAPMVMDRNFKPGFRIDLHIKDLANALDTSHGVGAQLPLTAAVMEMMQALRADGHGNDDHSALACYYEKLAKVEVTR”, the “soluble on expression in E. coli” value is given as “soluble”. In the case of “SNASYRSTQQITDFTKEILVNGEAVTAFDRQGDLPNVVVTPNFEAGVDQVVDQLAMNDSERDTTAIIGKSLAECEALTKALKARGEQVTLIQTENQRLAPGVIVVPSFLAKGLEFDAVIVWNANQENYQREDERQLLYTICSRAMHELTLVAVGSLSPLLARVNHALYTLNEAK”, the “soluble on expression in E. coli” value was “soluble”. In the case of “SNAYTDESGLSELVNAAGEKLQDLELMGQKNAVRDFFKELIADSGKVAYGESQVRANLEINSVDVLLLSEDLRAERVTTKCSVCGYENKWTRRWKPGEPAPAAGNCPKCGSSLEVTDVTDIVDEFSELADKSNAKVVFVSTDFDEGSQLMNAFGGIAAILRYNTGV”, the “soluble on expression in E. coli” value was “soluble”. On to “SNCRSEVLEVSVEGRQVEEAMLAVLHTVLLHRSTGKFHYKKEGTYSIGTVGIQDVDCDFIDFTYVRVSSEELDRALRKVVGEFKDALRNSGGDGLGQMSLEFYQKKKSRWPFSDECIPWEVWTVKVHVVALATEQERQICREKVGEKLCEKIINIVEVMSRHEYLPKMPTQSEVDNVFDTGLRDVQPYLYKISFQITEALGTSVTTTMRRLIKDTLAL”, for which the “soluble on expression in E. coli” value is “soluble”. For the sequence “SNDYRVAVFGAGGVGKSSLVLRFVKGTFRESYIPTVEDTYRQVISCDKSICTLQITDTTGSHQFPAMQRLSISKGHAFILVYSITSRQSLEELKPIYEQICEIKGDVESIPIMLVGNKCDESPSREVQSSEAEALARTWKCAFMETSAKLNHNVKELFQELLNLEKRRTVSL”, the “soluble on expression in E. coli” value was “soluble”. As to “SNEFFPVDDNNEGTDADMKEDSEGPEPKGLSPPHKKSKAKKPESSKDSSEDESGPEEKQTAEEMEGQSQEADGVNTTPVPSPASEDKAEVHKDEADSAKDDNTVKDSDMTNHSVCDQELPNGQENDSAKSEGKTEAESPSSSMETEDLSPNQEDAAIVEQPEVIPLIDDQEAQEGGEAQGKDAPAVFAESQGSSEAENTSGPDVDMNSQVDGVNEPTESLQEDLQ”, the “soluble on expression in E. coli” value was “not soluble”. Consider “SNGILREVSGIASNSAFYWTNLTSKPYMGFRSGRNWSMTSGDIRTVRSQVPEVEFISPIMWGARSNKNVVFGDKSETYSIVGAEPDYFEISRVNILQGRMLNAVDDKLRRKVCMIGKEVKEKLFGTTDPIGQVLRVNGLYYRVIGVLEAKSNNVTIGSSPKRSVYLPYSVLQQISNSGNRVENFAVSAYPSADMKQMFKKTETIIRSRNQIAPDDDKALSKFDISAQFQLMNMIFTGINL”, for which the “soluble on expression in E. coli” value was “not soluble”.

Turning to “SNNVLPTWSLDSNGEMRSRLSLSEVLDSGDLMKFAVDKTGCQFLEKAVKGSLTSYQKFQLFEQVIGRKDDFLKLSTNIFGNYLVQSVIGISLATNDDGYTKRQEKLKNFISSQMTDMCLDKFACRVIQSSLQNMDLSLACKLVQALPRDARLIAICVDQNANHVIQKVVAVIPLKNWEFIVDFVATPEHLRQICSDKYGCRVVQTIIEKLTADSMNVDLTSAAQNLRERALQRLMTSVTNRCQELATNEYANYIIQHIVSNDDLAVYRECIIEKCLMRNLLSLSQEKFASHVVEKAFLHAPLELLAEMMDEIFDGYIPHPDTGKDALDIMMFHQFGNYVVQCMLTICCDAVSGRRQTKEGGYDHAISFQDWLKKLHSRVTKERHRLSRFSSGKKMIETLANLRSTHPIYELQ”, the “soluble on expression in E. coli” value was “soluble”.
